Target: T1, CPSF73 (human, UniProt Q9UKF6 1-684)
T1 sequence: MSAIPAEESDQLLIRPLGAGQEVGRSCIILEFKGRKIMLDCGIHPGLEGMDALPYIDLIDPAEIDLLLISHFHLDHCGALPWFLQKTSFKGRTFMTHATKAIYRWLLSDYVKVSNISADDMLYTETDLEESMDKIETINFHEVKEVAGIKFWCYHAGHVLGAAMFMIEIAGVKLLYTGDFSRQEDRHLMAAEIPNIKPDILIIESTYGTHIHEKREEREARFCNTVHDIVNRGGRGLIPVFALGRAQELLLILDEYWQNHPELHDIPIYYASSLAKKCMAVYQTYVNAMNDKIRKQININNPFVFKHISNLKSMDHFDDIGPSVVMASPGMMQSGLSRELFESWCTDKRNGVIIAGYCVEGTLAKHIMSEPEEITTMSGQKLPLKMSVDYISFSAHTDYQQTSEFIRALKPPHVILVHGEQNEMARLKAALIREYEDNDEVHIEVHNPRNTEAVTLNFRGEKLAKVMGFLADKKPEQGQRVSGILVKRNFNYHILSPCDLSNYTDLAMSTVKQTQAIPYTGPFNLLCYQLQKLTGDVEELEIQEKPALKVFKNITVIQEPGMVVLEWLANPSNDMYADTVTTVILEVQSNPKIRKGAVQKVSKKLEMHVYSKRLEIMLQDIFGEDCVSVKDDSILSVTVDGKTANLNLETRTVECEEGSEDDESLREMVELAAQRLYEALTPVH
Experiment: cell-based or functional assay

B1: Lsm11 R109E/I110A/R112E/L113A/R114E/L116A (natural protein, human, UniProt P83369 1-360, looked up)
chain: MEERERGARSAGAGSPARPPSPRLDVSSDSFDPLLALYAPRLPPIPYPNAPCFNNVAEYESFLRTGVRGGGRGRGRARGAAAGSGVPAAPGPSGRTRRRPDAPAPDPEEAQEAERAMVAKEEGDGAAGAGRRGPGRSRKAPRNVLTRMPLHEGSPLGELHRCIREGVKVNVHIRTFKGLRGVCTGFLVAFDKFWNMALTDVDETYRKPVLGKAYERDSSLTLTRLFDRLKLQDSSKKEADSKSAVEDSTLSRYSQTSTWKLASVWGRADTGRGSHKRSRSVPSSLQASAREESRSELSGRTTRTDGSSVGGTFSRATTLSRGQSRKKKRKPKVDYQQVFTRHINQIFIRGENVLLVHLAQ
In the case of B1, the “cleavage activity of the U7 snRNP with sextuple mutant Lsm11 toward the H2a* substrate, compared to the wild-type, in the absence of SLBP” value is reported as roughly 3 fold lower.

Source: article PMC12774660 (Nucleic Acids Research, 2026)
